Experimental data taken from the nanobody polyreactivity screen of Harvey et al. (2022).

Assay: yeast display, Sf9 membrane polyspecificity reagent, FACS + sequencing; frameworks hold sequencing errors
Outline: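 After 36–48 hours of galactose induction, yeast (Saccharomyces cerevisiae BJ5465) displaying a synthetic nanobody library were stained at 4 °C for 1 hour with 10% biotinylated, detergent-solubilized Sf9 membrane reagent. Streptavidin microbeads enriched the stained cells before FACS sorting into low and high (top ~1%) gates on anti-HA and streptavidin fluorescence. Each clone's polyreactivity label reflects its gate of origin.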

QVQLVEAGGGLVQAGGSLRLSCAASGRISYTYAMGWYRQAPGNERELVAAITDGGSTTYADSVKGRFTISRDNAKNTVYLQMNSLKPEDTAVYYCNADTDSAKSPAYYYWGQGTQVTVSS
polyreactivity (PSR sort gate): low polyreactivity

QVQLVESGGGLDQAGGSLRLSCAASGFTFARYTMGWYRQAPGKEREFVAAISWSGGRTYYADSVKGRFTISRDNAKNTVYLQMNSLKPEDTAVYYCAARRKTTKYDYWGQGTQVTVSS
polyreactivity (PSR sort gate): high polyreactivity

QVQLVESGGGLVQAGGSLRLSCAASGRTFHGYAMGWYRQAPGNEREFVAAISSDGDSTYYADSVKGRFTISRDNAKNTVYLQMNSLKPEDTAVYYCAAERGYHGGGSGLYDYWGQGTQVTVSS
polyreactivity (PSR sort gate): low polyreactivity

HVQLVESGGGLVQAGGSLRLSCAASVTFSFYAMGWYTQSPGKERELVAAISSIGDSTYYADSVKGRFTISRDNAKNTVYLQMNSLKPEETAVYYYGVIAVDAYDYYTYDYWRQGTQVTVSS
polyreactivity (PSR sort gate): high polyreactivity

QVQLVESGGGLVQAGGSLRLSCAASGSIFRYYAMGWYIQAPGKERELVAAISYSGGTTYYADSVKGRFTISRDNAKNTVYLQMNSLKPEDTAVYYCAVPLIGVDGYAYDYWGQGTQVTVSS
polyreactivity (PSR sort gate): low polyreactivity

QVQLVESGGGLVQAGGSLRLSCAASGRTFSAYAMGWYRQAPGKERELVARITSVDSTNYADSVKGRFTISRDNAKNSVYLQMNSLKPEDTAVYDCNATFGYPFVDYDDYWGQGTQVTVSS
polyreactivity (PSR sort gate): low polyreactivity

QVQLVESGGGLVQAGGSLRLSCAASGIIFRGNAMGWYRQAPRKERELVAAISSAGSTNYADSVKGRFTISRDNAKNTVYLQMNSLKPEDTAVYYCAKGSSKYHVTLRGRGYYWGQGTQVTVSS
polyreactivity (PSR sort gate): low polyreactivity

QVQLVESGGGLVQAGGSLRLICAASGFTFASNAMGWYRQATGKERELVAAITTSGGSTYYADSVKGRFTISRDNAKNTVYLQMNSLKPEDTSVYYCADRATSRRPYSYGSWGQGTQVTVSS
polyreactivity (PSR sort gate): high polyreactivity

QVQLVESGGGLLQAGGSLRLSCAASGRTFKSYTMGWYRQAPGKERELVAAIRASGGITYYADSVKGRFTISRDNAKNTVYLQMNSLKPEDTAVYYCAARPRTRYDYWGQGTQVTVSS
polyreactivity (PSR sort gate): high polyreactivity

QVQLVESGGGLVQAGGSLRLSCAASGRTFVGYTMGWYRQAPGKERELVAAIDLSDGSTSYADSVKGRFTISRDNAKNTVYLQMNSLKPEDTAVYYCAKSWANVYAGAHDYWGQGTQVTVSS
polyreactivity (PSR sort gate): low polyreactivity

QVQLVESGGGLVQAGGSLRLSCAASGNTFRYYAMGWYRQAPGKERELVATITSGGRTYYADSVKGRFTISRDNAKNTVYLQMNSLKPEDTAVYYCAAVGLDYFVGEYDYWGQGTQLTVSS
polyreactivity (PSR sort gate): low polyreactivity

QVQLVESGGGLVQAGGSLRLSCAASGSPFPYVMVWYRQAPGKERELVAAISQRTGSTYYADSVKGRFTISRDNAKNTVYLQMNSLKPEDTAVYYCAKPGYLRPSRYDYWGQGTQVTVSS
polyreactivity (PSR sort gate): high polyreactivity

QVQLVESGGGLVQAGGSLRLSCAASGRTFVTYAMGWYRQAPGKERELVATINYSGGSTNYADSVKGRFTISRDNAKNTVYLQMNSLKPEDTAVYYCNTVPRQHRPGDYWGQGTQVTVSS
polyreactivity (PSR sort gate): low polyreactivity

QVQLVESGGGLVQAGGSLRLSCAASGIIFYANVMGLYRQAPGKERELVAGISRNGGRTYYADSVKGRFTISRDNAKNTVYLQMNSLKPADTAVYYCAALGSYTSIFDYWGQGTQVTVSS
polyreactivity (PSR sort gate): high polyreactivity

QVQLVESGGGLVQAGGSLRLSCAASGSICRLYAMGWYRPARGKEREFVAGITRRTGSTYYADSVKWRFTISRDNAKNTVYLQMTSLKPEETAVYYCAKRDARATPFGYWGLGTQVTVSS
polyreactivity (PSR sort gate): high polyreactivity

QVQLVDSGGGLVQAGGSLRLSCAASGFIFGKNAMGWYRQAPGKERELVAVISWRGSSTNYADSVKGRFTISRDNAKNTVYLQMNSLKPEDTAVYYCAARYPARGTLYYWGQGTQVTVSS
polyreactivity (PSR sort gate): low polyreactivity

QVQLVESGGGLVKAGGSLRLSFAASGSIFEPYVMGWYRQAPGKQRELVAAISESGDTTYYADSVKGRFTISRDNAKTTVYLKMNSLKPEDTAVYDCNAEDPSIYGWWRVGEYDYWGQGTQVTVSS
polyreactivity (PSR sort gate): low polyreactivity
